Data: patent US20090105152A1
Numbered stars: 1 amine (or outer) side, 2 acyl side, 3 side chain; on linkers, the order of the positions; unused ones are H or OH. Square brackets hold non-standard residues; d marks the D form. Asp(NHBzl) = N-omega-benzylasparagine, O=C(C[C@H](N[*:1])C(=O)[*:2])NCc1ccccc1; Phe(3R-OH) = O=C([C@@H](N[*:1])[C@H](O[*:3])c1ccccc1)[*:2]; Phe(3-Me) = Cc1cccc(C[C@H](N)C(=O)O)c1; Phe(4-Me) = Cc1ccc(C[C@H](N)C(=O)O)cc1; Phe(2-Me) = Cc1ccccc1C[C@H](N)C(=O)O; Arg(Me) = CNC(=N)NCCC[C@H](N)C(=O)O; Ala(cPr) = N[C@@H](CC1CC1)C(=O)O; Hyp = O=C(O)[C@@H]1C[C@@H](O)CN1; αMeF = C[C@](N)(Cc1ccccc1)C(=O)O; Cit = NC(=O)NCCC[C@H](N)C(=O)O; Dab = NCC[C@H](N)C(=O)O; Dap = NC[C@H](N)C(=O)O; azaGly = NNC(=O)O

Biological target: human OT7T175 (metastin receptor) (human) (UniProt Q969F8)
Sequence (Q969F8 whole entry L364H): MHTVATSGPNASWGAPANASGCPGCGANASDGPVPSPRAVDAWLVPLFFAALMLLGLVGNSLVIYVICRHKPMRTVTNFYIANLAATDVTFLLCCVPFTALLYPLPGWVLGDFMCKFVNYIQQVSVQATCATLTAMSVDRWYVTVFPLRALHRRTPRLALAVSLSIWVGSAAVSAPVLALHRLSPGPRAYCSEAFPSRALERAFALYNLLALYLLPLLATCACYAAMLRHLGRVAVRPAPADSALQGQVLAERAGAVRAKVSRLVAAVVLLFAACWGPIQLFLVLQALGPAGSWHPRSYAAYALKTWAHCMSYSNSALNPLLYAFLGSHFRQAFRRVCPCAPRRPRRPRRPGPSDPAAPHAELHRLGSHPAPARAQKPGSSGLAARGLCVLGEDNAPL
Assay: cell-based or functional assay

B1: des(1)-Ac-[D-Tyr2,Hyp3,Cit4,Thr5,AzaGly7,Arg(Me)9,Trp10]MS10 (peptide)
peptide: Ac-[dY][Hyp][Cit]TF[azaGly]L[Arg(Me)]W-NH2
SMILES: CNC(=N)NCCC[C@H](NC(=O)[C@H](CC(C)C)NC(=O)NNC(=O)[C@H](Cc1ccccc1)NC(=O)[C@@H](NC(=O)[C@H](CCCNC(N)=O)NC(=O)[C@@H]1C[C@@H](O)CN1C(=O)[C@@H](Cc1ccc(O)cc1)NC(C)=O)[C@@H](C)O)C(=O)N[C@@H](Cc1c[nH]c2ccccc12)C(N)=O
B1 showed an intracellular Ca ion level-increasing activity [specific activity to Metastin (1-54)] (relative to Metastin (1-54)) of 1.

In the case of Ac-[dY][Hyp]N[dT]F[azaGly]L[Arg(Me)]W-NH2 [des(1)-Ac-[D-Tyr2,Hyp3,D-Thr5,AzaGly7,Arg(Me)9,Trp10]MS10], the intracellular Ca ion level-increasing activity [specific activity to Metastin (1-54)] (relative to Metastin (1-54)) is reported as 0.9.

B2: des(1)-Ac-[D-Tyr2,Hyp3,Thr5,AzaGly7,Ala(cPr)8,Arg(Me)9,Trp10]MS10 (peptide)
peptide: Ac-[dY][Hyp]NTF[azaGly][Ala(cPr)][Arg(Me)]W-NH2
SMILES: CNC(=N)NCCC[C@H](NC(=O)[C@H](CC1CC1)NC(=O)NNC(=O)[C@H](Cc1ccccc1)NC(=O)[C@@H](NC(=O)[C@H](CC(N)=O)NC(=O)[C@@H]1C[C@@H](O)CN1C(=O)[C@@H](Cc1ccc(O)cc1)NC(C)=O)[C@@H](C)O)C(=O)N[C@@H](Cc1c[nH]c2ccccc12)C(N)=O
For B2, the intracellular Ca ion level-increasing activity [specific activity to Metastin (1-54)] (relative to Metastin (1-54)) was 0.6.

B3: des(1)-Ac-[D-Tyr2,D-Trp3,Asp(NHBzl)4,Thr5,AzaGly7,Arg(Me)9,Trp10]MS10 (peptide)
peptide: Ac-[dY][dW][Asp(NHBzl)]TF[azaGly]L[Arg(Me)]W-NH2
SMILES: CNC(=N)NCCC[C@H](NC(=O)[C@H](CC(C)C)NC(=O)NNC(=O)[C@H](Cc1ccccc1)NC(=O)[C@@H](NC(=O)[C@H](CC(=O)NCc1ccccc1)NC(=O)[C@@H](Cc1c[nH]c2ccccc12)NC(=O)[C@@H](Cc1ccc(O)cc1)NC(C)=O)[C@@H](C)O)C(=O)N[C@@H](Cc1c[nH]c2ccccc12)C(N)=O
B3 was tested, and the intracellular Ca ion level-increasing activity [specific activity to Metastin (1-54)] (relative to Metastin (1-54)) was 3.6.

For {4‑ureidobenzoyl}-F[azaGly]L[Arg(Me)]W-NH2 [des(1-5)-4-Ureidobenzoyl-[AzaGly7,Arg(Me)9,Trp10]MS10], the intracellular Ca ion level-increasing activity [specific activity to Metastin (1-54)] (relative to Metastin (1-54)) was 1.3.

B4: des(1)-Ac-[D-Tyr2,Hyp3,Arg4,Thr5,AzaGly7,Arg(Me)9,Trp10]MS10 (peptide)
peptide: Ac-[dY][Hyp]RTF[azaGly]L[Arg(Me)]W-NH2
SMILES: CNC(=N)NCCC[C@H](NC(=O)[C@H](CC(C)C)NC(=O)NNC(=O)[C@H](Cc1ccccc1)NC(=O)[C@@H](NC(=O)[C@H](CCCNC(=N)N)NC(=O)[C@@H]1C[C@@H](O)CN1C(=O)[C@@H](Cc1ccc(O)cc1)NC(C)=O)[C@@H](C)O)C(=O)N[C@@H](Cc1c[nH]c2ccccc12)C(N)=O
B4 showed an intracellular Ca ion level-increasing activity [specific activity to Metastin (1-54)] (relative to Metastin (1-54)) of 1.4.

B5: des(1)-Ac-[D-Tyr2,Hyp3,Gly4,Thr5,AzaGly7,Arg(Me)9,Trp10]MS10 (peptide)
peptide: Ac-[dY][Hyp]GTF[azaGly]L[Arg(Me)]W-NH2
SMILES: CNC(=N)NCCC[C@H](NC(=O)[C@H](CC(C)C)NC(=O)NNC(=O)[C@H](Cc1ccccc1)NC(=O)[C@@H](NC(=O)CNC(=O)[C@@H]1C[C@@H](O)CN1C(=O)[C@@H](Cc1ccc(O)cc1)NC(C)=O)[C@@H](C)O)C(=O)N[C@@H](Cc1c[nH]c2ccccc12)C(N)=O
Binder B5 has an intracellular Ca ion level-increasing activity [specific activity to Metastin (1-54)] (relative to Metastin (1-54)) of 0.7.

B6: des(1)-Ac-[D-Tyr2,Hyp3,Dap4,Thr5,AzaGly7,Arg(Me)9,Trp10]MS10 (peptide)
peptide: Ac-[dY][Hyp][Dap]TF[azaGly]L[Arg(Me)]W-NH2
SMILES: CNC(=N)NCCC[C@H](NC(=O)[C@H](CC(C)C)NC(=O)NNC(=O)[C@H](Cc1ccccc1)NC(=O)[C@@H](NC(=O)[C@H](CN)NC(=O)[C@@H]1C[C@@H](O)CN1C(=O)[C@@H](Cc1ccc(O)cc1)NC(C)=O)[C@@H](C)O)C(=O)N[C@@H](Cc1c[nH]c2ccccc12)C(N)=O
In the case of B6, the intracellular Ca ion level-increasing activity [specific activity to Metastin (1-54)] (relative to Metastin (1-54)) is reported as 0.9.

B7: des(1)-Ac-[D-Tyr2,Hyp3,Dab4,Thr5,AzaGly7,Arg(Me)9,Trp10]MS10 (peptide)
peptide: Ac-[dY][Hyp][Dab]TF[azaGly]L[Arg(Me)]W-NH2
SMILES: CNC(=N)NCCC[C@H](NC(=O)[C@H](CC(C)C)NC(=O)NNC(=O)[C@H](Cc1ccccc1)NC(=O)[C@@H](NC(=O)[C@H](CCN)NC(=O)[C@@H]1C[C@@H](O)CN1C(=O)[C@@H](Cc1ccc(O)cc1)NC(C)=O)[C@@H](C)O)C(=O)N[C@@H](Cc1c[nH]c2ccccc12)C(N)=O
Binder B7 has an intracellular Ca ion level-increasing activity [specific activity to Metastin (1-54)] (relative to Metastin (1-54)) of 1.

B8: des(1)-Ac-[D-Tyr2,Hyp3,Thr5,αMePhe6,AzaGly7,Arg(Me)9,Trp10]MS10 (peptide)
peptide: Ac-[dY][Hyp]NT[αMeF][azaGly]L[Arg(Me)]W-NH2
SMILES: CNC(=N)NCCC[C@H](NC(=O)[C@H](CC(C)C)NC(=O)NNC(=O)[C@](C)(Cc1ccccc1)NC(=O)[C@@H](NC(=O)[C@H](CC(N)=O)NC(=O)[C@@H]1C[C@@H](O)CN1C(=O)[C@@H](Cc1ccc(O)cc1)NC(C)=O)[C@@H](C)O)C(=O)N[C@@H](Cc1c[nH]c2ccccc12)C(N)=O
B8 gave an intracellular Ca ion level-increasing activity [specific activity to Metastin (1-54)] (relative to Metastin (1-54)) of 1.4.

B9: des(1)-Ac-[D-Tyr2,Hyp3,Thr5,Phe(2Me)6,AzaGly7,Arg(Me)9,Trp10]MS10 (peptide)
peptide: Ac-[dY][Hyp]NT[Phe(2-Me)][azaGly]L[Arg(Me)]W-NH2
SMILES: CNC(=N)NCCC[C@H](NC(=O)[C@H](CC(C)C)NC(=O)NNC(=O)[C@H](Cc1ccccc1C)NC(=O)[C@@H](NC(=O)[C@H](CC(N)=O)NC(=O)[C@@H]1C[C@@H](O)CN1C(=O)[C@@H](Cc1ccc(O)cc1)NC(C)=O)[C@@H](C)O)C(=O)N[C@@H](Cc1c[nH]c2ccccc12)C(N)=O
Work on B9 yielded an intracellular Ca ion level-increasing activity [specific activity to Metastin (1-54)] (relative to Metastin (1-54)) of 0.6.

B10: des(1)-Ac-[D-Tyr2,Hyp3,Thr5,Phe(3Me)6,AzaGly7,Arg(Me)9,Trp10]MS10 (peptide)
peptide: Ac-[dY][Hyp]NT[Phe(3-Me)][azaGly]L[Arg(Me)]W-NH2
SMILES: CNC(=N)NCCC[C@H](NC(=O)[C@H](CC(C)C)NC(=O)NNC(=O)[C@H](Cc1cccc(C)c1)NC(=O)[C@@H](NC(=O)[C@H](CC(N)=O)NC(=O)[C@@H]1C[C@@H](O)CN1C(=O)[C@@H](Cc1ccc(O)cc1)NC(C)=O)[C@@H](C)O)C(=O)N[C@@H](Cc1c[nH]c2ccccc12)C(N)=O
With B10 the intracellular Ca ion level-increasing activity [specific activity to Metastin (1-54)] (relative to Metastin (1-54)) was 0.7.

B11: des(1)-Ac-[D-Tyr2,Hyp3,Thr5,Phe(4Me)6,AzaGly7,Arg(Me)9,Trp10]MS10 (peptide)
peptide: Ac-[dY][Hyp]NT[Phe(4-Me)][azaGly]L[Arg(Me)]W-NH2
SMILES: CNC(=N)NCCC[C@H](NC(=O)[C@H](CC(C)C)NC(=O)NNC(=O)[C@H](Cc1ccc(C)cc1)NC(=O)[C@@H](NC(=O)[C@H](CC(N)=O)NC(=O)[C@@H]1C[C@@H](O)CN1C(=O)[C@@H](Cc1ccc(O)cc1)NC(C)=O)[C@@H](C)O)C(=O)N[C@@H](Cc1c[nH]c2ccccc12)C(N)=O
With B11 the intracellular Ca ion level-increasing activity [specific activity to Metastin (1-54)] (relative to Metastin (1-54)) was 0.8.

B12: des(1)-Ac-[D-Tyr2,Hyp3,Thr5,threo-Ser(3Phenyl)6,AzaGly7,Arg(Me)9,Trp10]MS10 (peptide)
peptide: Ac-[dY][Hyp]NT[Phe(3R-OH)][azaGly]L[Arg(Me)]W-NH2
SMILES: CNC(=N)NCCC[C@H](NC(=O)[C@H](CC(C)C)NC(=O)NNC(=O)[C@@H](NC(=O)[C@@H](NC(=O)[C@H](CC(N)=O)NC(=O)[C@@H]1C[C@@H](O)CN1C(=O)[C@@H](Cc1ccc(O)cc1)NC(C)=O)[C@@H](C)O)[C@H](O)c1ccccc1)C(=O)N[C@@H](Cc1c[nH]c2ccccc12)C(N)=O
For B12, the intracellular Ca ion level-increasing activity [specific activity to Metastin (1-54)] (relative to Metastin (1-54)) was 1.
